# Assay results as given in patent US20150361176A1 (GlaxoSmithKline, published 2015).
# Where a chain is given by its changes, count along the chain named. Names may count otherwise.
# T1: mouse TGF-βRII on MC3T3-E1 cells (mouse osteoblasts) (mouse, UniProt Q62312 24-567)
# T1 sequence (looked up): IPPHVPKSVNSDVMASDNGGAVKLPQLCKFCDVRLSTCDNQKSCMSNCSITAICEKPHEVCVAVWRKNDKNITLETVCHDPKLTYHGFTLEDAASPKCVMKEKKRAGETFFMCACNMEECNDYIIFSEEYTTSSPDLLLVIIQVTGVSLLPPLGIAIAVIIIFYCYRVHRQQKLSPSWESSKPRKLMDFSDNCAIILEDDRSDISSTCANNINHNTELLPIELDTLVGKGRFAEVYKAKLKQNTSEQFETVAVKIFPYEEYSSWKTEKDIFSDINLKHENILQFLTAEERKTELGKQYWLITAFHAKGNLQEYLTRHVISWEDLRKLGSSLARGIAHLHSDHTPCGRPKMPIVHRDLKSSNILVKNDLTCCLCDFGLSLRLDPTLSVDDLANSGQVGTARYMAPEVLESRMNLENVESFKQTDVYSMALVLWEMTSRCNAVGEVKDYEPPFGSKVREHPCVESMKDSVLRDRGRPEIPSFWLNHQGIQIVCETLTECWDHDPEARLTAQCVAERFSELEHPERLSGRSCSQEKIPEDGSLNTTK
# B1: DOM23h-439-40 (DOM23h-439-25 + C-terminal Alanine) (VHH)
# VHH: EVQLLESGGGLVQPGGSLRLSCAASGFTFGTEQMWWVRQAPGKGLEFVSRIDSPGGRTYYADSVKGRFTISRDNSKNTLYLQMNSLRAEDTAVYYCAKRRPTGVSGTFYDYWGQGTLVTVSS
# notes: human VH dAb
# B2: DOM23h-439-42 (DOM23h-439-25 + C-terminal Alanine + 61N) (VHH)
# VHH: B1 VHH with D62N
# notes: human VH dAb
# B3: DOM23h-439-44 (DOM23h-439-25 + C-terminal Alanine + 61N64R) (VHH)
# VHH: B1 VHH with D62N, K65R
# notes: human VH dAb
# B4: DOM23h-439-43 (DOM23h-439-25 + C-terminal Alanine + 64R) (VHH)
# VHH: B1 VHH with K65R
# notes: human VH dAb
# B5: DOM23h-439-41 (DOM23h-439-25 + C-terminal Alanine + 48I) (VHH)
# VHH: B1 VHH with V48I
# notes: human VH dAb
# B6: DOM23h-271-130 (DOM23h-271-123 + C-terminal Alanine) (VHH)
# VHH: EVQLLESGGGLVQPGGSLRLSCAASGSTFTEYRMWWVRQAPGKGLEWVSAIEPIGHRTYYADSVKGRFTISRDNSKNTLYLQMNSLRAEDTAVYYCAKQAPGEKWARRWDLDYWGQGTLVTVSS
# notes: human VH dAb
# B7: DOM23h-271-131 (DOM23h-271-123 + C-terminal Alanine + 61N) (VHH)
# VHH: B6 VHH with D62N
# notes: human VH dAb
# B8: DOM23h-271-132 (DOM23h-271-123 + C-terminal Alanine + 64R) (VHH)
# VHH: B6 VHH with K65R
# notes: human VH dAb
# B9: DOM23h-271-133 (DOM23h-271-123 + C-terminal Alanine + 61N64R) (VHH)
# VHH: B6 VHH with D62N, K65R
# notes: human VH dAb
# B10: DOM23h-271-129 (VHH)
# VHH: B6 VHH with G102N, E103Q, K104R, W105Y, A106V, R107A, W109G, D110R
# notes: expressed from pC10
# B11: DOM23h-271-123 (VHH)
# VHH: B6 VHH
# notes: expressed from pC10
# B12: DOM23m-29 (VHH, not shown: small tags and cut ends)
# VHH: EVQLLESGGGLVQPGGSLRLSCAASGFTFKRYSMGWVRQAPGKGLEWVSVINDLGSLTYYADSVKGRFTISRDNSKNTLYLQMNSLRAEDTAVYYCAKGNISMVRPGSWFDYWGQGTLVTVSS
# B13: DOM23m-81 (VHH, not shown: small tags and cut ends)
# VHH: EVQLLESGGGLVQPGGSLRLSCAASGFTFEPVIMGWVRQAPGKGLEWVSAIEARGGGTYYADSVKGRFTISRDNSKNTLYLQMNSLRAEDTAVYYCAKPGRHLSQDFDYWGQGTLVTVSS
# B14: DOM23m-99 (VHH, not shown: small tags and cut ends)
# VHH: EVQLLESGGGLVQPGGSLRLSCAASGFTFDRYRMMWVRQAPGKGLEWVSTIDPAGMLTYYADSVKGRFTISRDNSKNTLYLQMNSLRAEDTAVYYCAKRLASRSHFDYWGQGTLVTVSS
# B15: DOM23h-271 mutant 1A2 (R at 61, A at 64) (VHH, name in Kabat numbering)
# VHH: EVQLLESGGGLVQPGGSLRLSCAASGFTFTEYRMWWVRQAPGKGLEWVSAIEPIGNRTYYARSVAGRFTISRDNSKNTLYLQMNSLRAEDTAVYYCAKQIPGRKWTANSRFDYWGQGTLVTVSS
# notes: human VH dAb; expressed from pDOM13
# B16: DOM23h-271 mutant 1D5 (K at 61, F at 64) (VHH, name in Kabat numbering)
# VHH: B15 VHH with R62K, A65F
# notes: human VH dAb; expressed from pDOM13; also called KF
# B17: DOM23h-271 mutant 3F11 (R at 61, E at 64) (VHH, name in Kabat numbering)
# VHH: B15 VHH with A65E
# notes: human VH dAb; expressed from pDOM13; also called RE
# B18: DOM23h-271 mutant 1H11 (L at 61, W at 64) (VHH, name in Kabat numbering)
# VHH: B15 VHH with R62L, A65W
# notes: human VH dAb; expressed from pDOM13; also called LW
# B19: DOM23h-271 mutant 1E6 (R at 61, Y at 64) (VHH, name in Kabat numbering)
# VHH: B15 VHH with A65Y
# notes: human VH dAb; expressed from pDOM13; also called RY
# B20: DOM23h-271 mutant 1G11 (R at 61, M at 64) (VHH, name in Kabat numbering)
# VHH: B15 VHH with A65M
# notes: human VH dAb; expressed from pDOM13; also called RM
# B21: DOM23h-271 mutant 2C12 (D61N, K64R) (VHH, name in Kabat numbering)
# VHH: B15 VHH with R62N, A65R
# notes: human VH dAb; expressed from pDOM13; also called NR
# B22: DOM23h-271 mutant 1D9 (R at 61, D at 64) (VHH, name in Kabat numbering)
# VHH: B15 VHH with A65D
# notes: human VH dAb; expressed from pDOM13; also called RD
# B23: DOM23h-271 mutant 3D9 (K at 61, G at 64) (VHH, name in Kabat numbering)
# VHH: B15 VHH with R62K, A65G
# notes: human VH dAb; expressed from pDOM13; also called KG
# B24: DOM23h-271 mutant 1B11 (R at 61, V at 64) (VHH, name in Kabat numbering)
# VHH: B15 VHH with A65V
# notes: human VH dAb; expressed from pDOM13; also called RV
# B25: DOM23h-271 mutant 3D4 (K at 61, T at 64) (VHH, name in Kabat numbering)
# VHH: B15 VHH with R62K, A65T
# notes: human VH dAb; expressed from pDOM13; also called KT
# B26: DOM23h-271 mutant 1B2 (V at 61, W at 64) (VHH, name in Kabat numbering)
# VHH: B15 VHH with R62V, A65W
# notes: human VH dAb; expressed from pDOM13; also called VW
# Target: human TGF-βRII on cells (SBE-bla HEK 293T cells; A549 cells) (human, UniProt P37173 23-567)
# Assay: cell-based or functional assay
# Sequence of human TGF-βRII on cells (SBE-bla HEK 293T cells; A549 cells) (P37173 23-567): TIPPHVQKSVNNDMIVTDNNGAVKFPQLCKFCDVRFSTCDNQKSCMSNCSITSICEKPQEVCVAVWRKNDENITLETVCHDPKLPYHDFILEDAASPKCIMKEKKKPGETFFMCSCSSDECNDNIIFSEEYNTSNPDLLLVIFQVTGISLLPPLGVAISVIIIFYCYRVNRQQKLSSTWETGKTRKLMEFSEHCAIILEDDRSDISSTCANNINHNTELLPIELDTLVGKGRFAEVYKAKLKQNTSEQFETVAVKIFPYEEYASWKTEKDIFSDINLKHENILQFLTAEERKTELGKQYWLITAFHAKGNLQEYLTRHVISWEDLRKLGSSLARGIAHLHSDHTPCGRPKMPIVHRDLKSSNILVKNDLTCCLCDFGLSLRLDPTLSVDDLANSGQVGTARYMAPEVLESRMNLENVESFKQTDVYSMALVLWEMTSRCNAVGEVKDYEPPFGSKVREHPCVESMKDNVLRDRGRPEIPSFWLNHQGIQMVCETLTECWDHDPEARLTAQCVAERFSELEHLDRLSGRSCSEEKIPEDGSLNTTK
row,"IC50 nM, Mean (SBE-bla HEK 293T cell sensor assay) [nM]",Binder
1,14,B1
2,0.7,B2
3,1.3,B3
4,1,B4
5,1.7,B5
6,37,B6
7,6.3,B7
8,21,B8
9,2.4,B9
10,22.7,B10
11,18.3,B11

# Target: T1, mouse TGF-βRII on MC3T3-E1 cells (mouse …)
# Assay: cell-based or functional assay
"max % inhibition, Average (Mouse 3T3 cell assay, method m1) [%]","max % inhibition, Average (Mouse 3T3 cell assay, method m2) [%]",Binder
54.2,,B12
,30.3,B13
,46.5,B14

# Target: T2, recombinant human TGF-β RII/Fc chimera protein (human, UniProt P37173 24-159)
# T2 construct: range 24-159; Made in HEK-F cells; Biotinylated where it was put on SA chips, otherwise captured by anti-human IgG; also called human TGFbRII/Fc; hRII-Fc; not shown: Fc region of human IgG1
# Assay: SPR Biacore A100, antigen-Fc captured by anti-human IgG, purified dAb, 1:1 model
# Method: BIACORE™ A100 analysis was carried out using a capture surface on a CM5 chip. Anti-human IgG was used as the capturing agent and coupled to a CM5 biosensor chip by primary amine coupling. The Antigen molecule fused to the human Fc was captured on this immobilised surface to a level from 200 to 300 resonance units and supernatants or purified domain antibodies were passed over this captured surface. An injection of media or buffer over the captured antigen surface was used for double referencing. On each flow cell, a protein A spot allowed to confirm the presence of domain antibody on each sample injected. […] All runs were carried out at 25° C. using HBS-EP buffer as running buffer. Data were generated using the BIACORE™ A100 and analyzed using its inherent software. Kinetics from purified samples were fitted to the 1:1 binding model while supernatant off-rates were analyzed using the 1:1 dissociation model and/or using the binding level and the stability level of each sample in comparison to the parent molecule.
# A selection of mutants with improved off-rate were purified and subjected to full BIACORE™ A100 kinetic analysis to determine their affinity (Table 10). The thermal stability of the mutants was also determined by generation of melting profiles in the presence of SYPRO™ Orange (Invitrogen). Briefly, the purified dAbs were diluted to 50 and 100 ug/ml in a 1:500 dilution of SYPRO™ Orange in PBS, and subjected to a 30-90° C. melt curve in a Mini OPTICON™ PCR machine (BioRad). The Tm of the major positive transition was determined at each concentration and used to calculate an estimated Tm value at 1 mg/ml as an indication of the melting temperature for comparison (Table 10).
# T2 sequence (P37173 24-159 limits assumed, change not shown): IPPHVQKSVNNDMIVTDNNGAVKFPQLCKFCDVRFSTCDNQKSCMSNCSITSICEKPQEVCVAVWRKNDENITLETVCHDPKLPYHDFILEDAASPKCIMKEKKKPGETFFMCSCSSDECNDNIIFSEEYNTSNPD
row,Kd [nM],Binder
1,2.24,B15
2,3.69,B16
3,3.27,B17
4,4.17,B18
5,1.17,B19
6,0.97,B20
7,3.34,B21
8,1.17,B22
9,4.34,B23
10,1.88,B24
11,4.26,B25
12,1.79,B26

# Target: T3, cynomolgus TGF-β RII/Fc (cynomolgus)
# T3 construct: extracellular domain; also called Cyno TGFBRII; Cyno TGFbRII
# Assay: SPR Biacore T200, receptor-Fc captured by anti-human IgG, dAb as analyte, 1:1 model
# Method: (§1) Anti-human IgG was immobilised on a Biacore CM4 chip by primary amine coupling according to the manufacturer's instructions. Human TGF-β RII/Fc, cynomolgus TGF-β RII/Fc or human Fc fragment were captured on this surface. Domain antibodies were passed over the two captured receptors at 3 concentrations of 100, 10 and 1 nM (DOM23h-439 dAbs) or 100, 25 and 6.25 nM (DOM23h-271 dAbs). Only the 100 nM concentration of each dab was passed over human Fc fragment to confirm specificity of binding to the extracellular TGF-β RII domain. An injection of buffer over the captured antigen surface was used for double referencing. […] All runs were carried out at 25° C. using HBS-EP buffer as running buffer. Data were generated using the BIACORE™ T200 and fitted to the 1:1 binding model inherent to the software. […] The DOM23h-271 dAbs and the DOM23h-439 lineages were run in separate experiments.
Kd [nM],koff [s⁻¹],kon [M⁻¹ s⁻¹],Binder
0.366,0.00342,9.34e+06,B1
0.011,0.00041,3.72e+07,B2
0.00677,0.000147,2.17e+07,B3
0.149,0.0012,8.04e+06,B4
0.0333,0.000522,1.57e+07,B5
0.124,0.000324,2.61e+06,B6
0.0212,0.000144,6.81e+06,B7
0.0185,0.000238,1.29e+07,B8
0.00985,8.71e-05,8.84e+06,B9
0.0712,0.000427,6e+06,B10
0.104,0.00032,3.08e+06,B11

# Target: T2, recombinant human TGF-β RII/Fc chimera …
# Assay: as above
# Method: as §1
Kd [nM],koff [s⁻¹],kon [M⁻¹ s⁻¹],Binder
0.104,0.00139,1.34e+07,B1
0.0032,0.000131,4.09e+07,B2
0.00289,6.91e-05,2.39e+07,B3
0.0423,0.000373,8.83e+06,B4
0.0104,0.000187,1.81e+07,B5
0.123,0.000309,2.51e+06,B6
0.0217,0.000136,6.26e+06,B7
0.0182,0.000222,1.22e+07,B8
0.00909,7.7e-05,8.47e+06,B9
0.0741,0.000411,5.55e+06,B10
0.102,0.000293,2.89e+06,B11
